{
  "source": "patent US20040009534A1",
  "about": "(DYAX, published 2004)",
  "binders": {"B1": {"name": "DX-236 (peptide)", "peptide": "AEGTGDFWFCDRIAWYPQHLCEFLDPEGGGK", "modifications": "disulfide 10-21 (inferred); not fully specified; also: labeled, label not named, coupled via C-terminal lysine to NHS-Sepharose", "notes": "Cyclic (disulfide) phage-display peptide"}, "B2": {"name": "DX392 (peptide)", "peptide": "AGSYWCKIWDVCPQSPGPEGGGK", "modifications": "N-terminal acetyl (Ac-); C-terminal amide (-NH2); Oregon Green labeled", "notes": "Synthesised by BACHEM, Oregon Green labeled, HPLC purified"}, "B3": {"name": "DX389 (peptide)", "peptide": "AGPHNCDDHYWYCKWFPGPEGGGK", "modifications": "N-terminal acetyl (Ac-); C-terminal amide (-NH2); Oregon Green labeled", "notes": "as for B2"}, "B4": {"name": "DX-321 (peptide)", "peptide": "AEGTGDRNMCKFSWIRSPAFCARADPE", "modifications": "not fully specified (bridges); cysteine pairing not given here; also: label not named, exact tested form not given here, immobilised via C-terminal lysine to Sepharose"}, "B5": {"name": "DX413 (peptide)", "peptide": "AGYWYCWFPDRPECPLYPGPEGGGK", "modifications": "N-terminal acetyl (Ac-); C-terminal amide (-NH2); Oregon Green labeled", "notes": "as for B2"}, "B6": {"name": "DX398 (peptide)", "peptide": "Ac-AGAATCSTSYWYYQWFCTDSPGPEGGGK-NH2", "modifications": "cysteine pairing not given here; also: Oregon Green labeled, place not given here", "notes": "as for B2"}, "B7": {"name": "DX395 (peptide)", "peptide": "AGKYWCNLWGVCPANPGPEGGGK", "modifications": "N-terminal acetyl (Ac-); C-terminal amide (-NH2); Oregon Green labeled", "notes": "as for B2"}, "B8": {"name": "DX404 (peptide)", "peptide": "AGTYWCTFWELPCDPAPGPEGGGK", "modifications": "N-terminal acetyl (Ac-); C-terminal amide (-NH2); Oregon Green labeled", "notes": "as for B2"}},
  "key": {"[1]": {"target": "T1, goat serum albumin (Goat)", "T1 construct": "also called GSA", "T1 sequence (P85295 whole entry, looked up)": "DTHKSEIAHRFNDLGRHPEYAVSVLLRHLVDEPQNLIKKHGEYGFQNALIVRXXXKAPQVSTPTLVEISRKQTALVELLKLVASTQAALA", "assay": "labeled peptide, KD; PBS, pH 7.4, 0.14 M NaCl"}, "[2]": {"target": "T1, goat serum albumin", "assay": "labeled peptide, KD; 3 mM phosphate, pH 6.2, 0 M NaCl"}, "[3]": {"target": "T2, pig serum albumin (Pig, UniProt P08835 25-607)", "T2 sequence (P08835 25-607 limits assumed)": "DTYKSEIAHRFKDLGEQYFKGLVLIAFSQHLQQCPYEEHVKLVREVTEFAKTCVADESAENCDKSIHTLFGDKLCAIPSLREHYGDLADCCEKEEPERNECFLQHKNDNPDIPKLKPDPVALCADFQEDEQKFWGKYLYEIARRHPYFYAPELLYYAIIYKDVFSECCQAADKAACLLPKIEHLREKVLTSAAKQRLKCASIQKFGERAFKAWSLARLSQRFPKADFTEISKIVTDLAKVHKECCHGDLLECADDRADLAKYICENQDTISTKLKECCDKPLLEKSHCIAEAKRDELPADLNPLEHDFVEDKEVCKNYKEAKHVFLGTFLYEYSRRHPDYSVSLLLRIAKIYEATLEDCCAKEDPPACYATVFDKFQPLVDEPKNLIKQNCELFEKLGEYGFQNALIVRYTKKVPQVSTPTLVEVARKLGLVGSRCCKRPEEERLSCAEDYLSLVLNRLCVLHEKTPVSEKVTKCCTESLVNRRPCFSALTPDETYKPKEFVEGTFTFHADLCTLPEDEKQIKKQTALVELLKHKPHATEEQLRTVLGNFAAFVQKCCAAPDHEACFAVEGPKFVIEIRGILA", "assay": "labeled peptide, KD; 3 mM phosphate, pH 6.2, 0 M NaCl"}, "[4]": {"target": "rabbit serum albumin (Rabbit, UniProt P49065 25-608)", "sequence (P49065 25-608 limits assumed)": "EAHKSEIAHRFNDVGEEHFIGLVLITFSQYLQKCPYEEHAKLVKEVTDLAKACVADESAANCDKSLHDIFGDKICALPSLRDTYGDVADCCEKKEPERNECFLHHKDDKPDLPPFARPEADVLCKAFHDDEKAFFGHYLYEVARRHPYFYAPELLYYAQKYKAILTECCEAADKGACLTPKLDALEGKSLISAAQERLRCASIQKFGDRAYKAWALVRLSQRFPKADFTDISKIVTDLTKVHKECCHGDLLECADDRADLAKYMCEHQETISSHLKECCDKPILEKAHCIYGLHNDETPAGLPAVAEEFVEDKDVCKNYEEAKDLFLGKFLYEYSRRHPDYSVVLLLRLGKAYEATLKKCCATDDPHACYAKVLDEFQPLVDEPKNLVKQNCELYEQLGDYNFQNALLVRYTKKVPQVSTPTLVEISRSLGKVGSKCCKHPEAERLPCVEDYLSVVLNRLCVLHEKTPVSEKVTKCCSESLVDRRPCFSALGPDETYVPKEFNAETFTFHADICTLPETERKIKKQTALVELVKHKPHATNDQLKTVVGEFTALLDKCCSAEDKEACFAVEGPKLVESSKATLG", "assay": "labeled peptide, KD; 3 mM phosphate, pH 6.2, 0 M NaCl"}, "[5]": {"target": "T3, human plasma IgG3 (human, UniProt P01860-1 1-377)", "T3 construct": "Plasma-derived IgG isoform, bought", "T3 sequence (P01860 other isoform, or with tags, fused parts or gaps)": "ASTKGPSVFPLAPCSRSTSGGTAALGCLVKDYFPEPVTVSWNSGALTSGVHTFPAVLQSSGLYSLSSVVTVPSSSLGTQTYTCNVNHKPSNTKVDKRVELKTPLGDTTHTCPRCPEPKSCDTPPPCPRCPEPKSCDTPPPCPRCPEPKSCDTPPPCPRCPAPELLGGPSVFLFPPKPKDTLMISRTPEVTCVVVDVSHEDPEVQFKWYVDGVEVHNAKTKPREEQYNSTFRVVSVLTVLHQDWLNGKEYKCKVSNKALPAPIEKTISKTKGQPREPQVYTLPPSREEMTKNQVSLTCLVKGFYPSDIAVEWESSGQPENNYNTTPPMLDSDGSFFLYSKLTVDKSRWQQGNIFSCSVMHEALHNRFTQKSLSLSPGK", "assay": "Oregon Green peptide, pH 4.0 - salt", "procedure": "(§1) Binding studies were performed using human plasma IgG isoforms: IgG1, IgG2, IgG3, and IgG4, obtained from Calbiochem.\n(§2) Binding studies were carried out at either pH 4.0, 7.5, or 9.5, with or without salt in the following buffers: […]"}, "[6]": {"target": "T3, human plasma IgG3", "assay": "Oregon Green peptide, pH 4.0 + salt (500 mM NaCl)", "procedure": "as §1, §2"}, "[7]": {"target": "T3, human plasma IgG3", "assay": "Oregon Green peptide, pH 7.5 + salt (500 mM NaCl)", "procedure": "as §1, §2"}, "[8]": {"target": "T3, human plasma IgG3", "assay": "Oregon Green peptide, pH 9.5 + salt (500 mM NaCl)", "procedure": "as §1, §2"}, "[9]": {"target": "T4, human plasma IgG2 (human, UniProt P01859-1 1-326 = IgG part)", "T4 construct": "Plasma-derived IgG isoform, bought", "T4 sequence (P01859 other isoform, or with tags, fused parts or gaps)": "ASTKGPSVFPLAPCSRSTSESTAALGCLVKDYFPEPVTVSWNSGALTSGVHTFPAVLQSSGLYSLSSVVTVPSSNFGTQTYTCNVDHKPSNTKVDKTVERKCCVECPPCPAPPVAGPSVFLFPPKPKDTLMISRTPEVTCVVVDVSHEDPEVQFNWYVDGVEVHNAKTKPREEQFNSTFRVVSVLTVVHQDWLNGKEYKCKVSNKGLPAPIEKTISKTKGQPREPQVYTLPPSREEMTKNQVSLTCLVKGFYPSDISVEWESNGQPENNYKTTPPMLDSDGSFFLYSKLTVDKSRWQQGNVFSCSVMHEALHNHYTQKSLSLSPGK", "assay": "Oregon Green peptide, pH 7.5 + salt (500 mM NaCl); pH 7.5 + salt", "procedure": "as §1, §2"}, "[10]": {"target": "T5, rat serum albumin (Rat, UniProt P02770 25-608)", "T5 sequence (P02770 25-608 limits assumed)": "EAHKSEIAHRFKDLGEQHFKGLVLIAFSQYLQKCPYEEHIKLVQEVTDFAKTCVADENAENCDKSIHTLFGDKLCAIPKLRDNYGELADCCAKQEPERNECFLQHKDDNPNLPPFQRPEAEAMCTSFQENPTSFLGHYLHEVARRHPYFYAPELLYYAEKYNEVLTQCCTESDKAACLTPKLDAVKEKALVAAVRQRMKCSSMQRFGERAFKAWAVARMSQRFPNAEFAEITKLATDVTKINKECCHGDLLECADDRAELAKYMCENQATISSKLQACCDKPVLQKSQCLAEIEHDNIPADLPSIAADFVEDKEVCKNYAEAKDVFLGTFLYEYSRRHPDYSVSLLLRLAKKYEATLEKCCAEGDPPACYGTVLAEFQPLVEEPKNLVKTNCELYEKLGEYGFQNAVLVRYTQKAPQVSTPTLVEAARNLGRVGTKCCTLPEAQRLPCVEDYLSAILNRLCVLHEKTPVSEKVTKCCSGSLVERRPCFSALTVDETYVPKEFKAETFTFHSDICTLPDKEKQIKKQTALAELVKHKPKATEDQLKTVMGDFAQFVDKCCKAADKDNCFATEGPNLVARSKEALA", "assay": "labeled peptide, KD; PBS, pH 7.4, 0.14 M NaCl"}, "[11]": {"target": "T6, human serum albumin (human, UniProt P02768 25-609)", "T6 construct": "also called HSA", "T6 sequence (P02768 25-609)": "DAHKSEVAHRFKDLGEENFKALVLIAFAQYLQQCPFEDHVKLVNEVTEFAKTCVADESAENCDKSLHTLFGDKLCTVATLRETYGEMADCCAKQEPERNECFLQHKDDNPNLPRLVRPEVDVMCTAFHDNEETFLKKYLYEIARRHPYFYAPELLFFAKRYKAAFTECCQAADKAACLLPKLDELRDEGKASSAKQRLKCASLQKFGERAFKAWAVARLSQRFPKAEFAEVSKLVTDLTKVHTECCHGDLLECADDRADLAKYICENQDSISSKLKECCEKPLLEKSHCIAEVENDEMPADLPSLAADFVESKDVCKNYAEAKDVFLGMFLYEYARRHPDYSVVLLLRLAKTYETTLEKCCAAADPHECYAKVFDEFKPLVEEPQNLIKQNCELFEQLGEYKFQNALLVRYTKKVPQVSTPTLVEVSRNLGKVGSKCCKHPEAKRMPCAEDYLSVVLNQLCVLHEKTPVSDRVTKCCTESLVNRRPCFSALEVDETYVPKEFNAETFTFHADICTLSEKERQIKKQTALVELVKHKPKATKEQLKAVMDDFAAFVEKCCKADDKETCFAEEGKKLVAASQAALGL", "assay": "labeled peptide, KD; PBS, pH 7.4, 0.14 M NaCl"}, "[12]": {"target": "T7, Rhesus serum albumin (Rhesus, UniProt Q28522 17-600)", "T7 sequence (Q28522 17-600 limits assumed)": "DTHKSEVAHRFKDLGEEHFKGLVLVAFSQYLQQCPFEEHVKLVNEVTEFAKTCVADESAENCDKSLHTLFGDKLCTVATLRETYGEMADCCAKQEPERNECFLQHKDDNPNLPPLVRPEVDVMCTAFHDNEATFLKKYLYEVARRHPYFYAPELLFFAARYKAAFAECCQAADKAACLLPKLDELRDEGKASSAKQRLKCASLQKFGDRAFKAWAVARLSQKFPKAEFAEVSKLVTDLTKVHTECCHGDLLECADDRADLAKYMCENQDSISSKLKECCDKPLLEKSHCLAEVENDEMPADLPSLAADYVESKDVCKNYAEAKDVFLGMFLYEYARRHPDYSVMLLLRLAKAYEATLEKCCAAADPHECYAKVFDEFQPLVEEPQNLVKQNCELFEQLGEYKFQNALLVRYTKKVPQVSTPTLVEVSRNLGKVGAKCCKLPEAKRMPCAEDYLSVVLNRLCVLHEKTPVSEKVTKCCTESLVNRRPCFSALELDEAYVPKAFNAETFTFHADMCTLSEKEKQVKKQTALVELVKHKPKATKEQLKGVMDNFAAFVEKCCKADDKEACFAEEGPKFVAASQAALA", "assay": "labeled peptide, KD; PBS, pH 7.4, 0.14 M NaCl"}, "[13]": {"target": "T5, rat serum albumin", "assay": "labeled peptide, KD; 3 mM phosphate, pH 6.2, 0 M NaCl"}, "[14]": {"target": "T6, human serum albumin", "assay": "labeled peptide, KD; 3 mM phosphate, pH 6.2, 0 M NaCl"}, "[15]": {"target": "T7, Rhesus serum albumin", "assay": "labeled peptide, KD; 3 mM phosphate, pH 6.2, 0 M NaCl"}, "[16]": {"target": "T8, bovine serum albumin (Bovine, UniProt P02769 25-607)", "T8 construct": "also called BSA", "T8 sequence (P02769 25-607 limits assumed)": "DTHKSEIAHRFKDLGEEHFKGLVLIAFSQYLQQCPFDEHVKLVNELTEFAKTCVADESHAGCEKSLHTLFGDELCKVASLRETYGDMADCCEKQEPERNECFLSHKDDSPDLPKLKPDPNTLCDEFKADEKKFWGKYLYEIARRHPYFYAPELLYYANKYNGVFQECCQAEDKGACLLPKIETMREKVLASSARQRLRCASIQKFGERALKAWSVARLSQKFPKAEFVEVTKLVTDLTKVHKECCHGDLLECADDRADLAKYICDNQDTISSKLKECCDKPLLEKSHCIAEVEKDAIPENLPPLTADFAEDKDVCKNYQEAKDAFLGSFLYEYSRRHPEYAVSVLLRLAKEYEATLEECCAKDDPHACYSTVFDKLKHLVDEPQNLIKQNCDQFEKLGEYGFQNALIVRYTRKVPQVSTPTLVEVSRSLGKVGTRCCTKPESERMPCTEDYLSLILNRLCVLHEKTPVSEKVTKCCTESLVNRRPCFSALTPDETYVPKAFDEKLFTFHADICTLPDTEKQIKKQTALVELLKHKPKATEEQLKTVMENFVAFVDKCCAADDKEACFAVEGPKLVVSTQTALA", "assay": "labeled peptide, KD; 3 mM phosphate, pH 6.2, 0 M NaCl; labeled peptide in solution; 3 mM phosphate, pH 6.2, 0 M NaCl"}, "[17]": {"target": "T2, pig serum albumin", "assay": "labeled peptide, KD; 3 mM phosphate, pH 6.2, 0 M NaCl; labeled peptide in solution; 3 mM phosphate, pH 6.2, 0 M NaCl"}, "[18]": {"target": "T3, human plasma IgG3", "assay": "Oregon Green peptide, TBS pH 7.5", "procedure": "as §1, §2"}, "[19]": {"target": "T9, human plasma IgG1 (human, UniProt P01857-1 1-330 = IgG part)", "T9 construct": "Plasma-derived IgG isoform, bought", "T9 sequence (P01857 other isoform, or with tags, fused parts or gaps)": "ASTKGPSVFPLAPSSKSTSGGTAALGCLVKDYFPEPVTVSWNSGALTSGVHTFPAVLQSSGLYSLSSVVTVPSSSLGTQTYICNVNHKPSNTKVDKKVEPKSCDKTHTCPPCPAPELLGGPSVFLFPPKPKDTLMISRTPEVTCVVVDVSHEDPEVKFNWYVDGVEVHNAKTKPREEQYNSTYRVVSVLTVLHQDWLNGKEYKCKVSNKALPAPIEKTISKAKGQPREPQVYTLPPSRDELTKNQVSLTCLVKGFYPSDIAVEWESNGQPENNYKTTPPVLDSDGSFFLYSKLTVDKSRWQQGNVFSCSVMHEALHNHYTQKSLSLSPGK", "assay": "Oregon Green peptide, pH 4.0 - salt", "procedure": "as §1, §2"}, "[20]": {"target": "T10, human plasma IgG4 (human, UniProt P01861-1 1-327 = IgG part)", "T10 construct": "Plasma-derived IgG isoform, bought", "T10 sequence (P01861 other isoform, or with tags, fused parts or gaps)": "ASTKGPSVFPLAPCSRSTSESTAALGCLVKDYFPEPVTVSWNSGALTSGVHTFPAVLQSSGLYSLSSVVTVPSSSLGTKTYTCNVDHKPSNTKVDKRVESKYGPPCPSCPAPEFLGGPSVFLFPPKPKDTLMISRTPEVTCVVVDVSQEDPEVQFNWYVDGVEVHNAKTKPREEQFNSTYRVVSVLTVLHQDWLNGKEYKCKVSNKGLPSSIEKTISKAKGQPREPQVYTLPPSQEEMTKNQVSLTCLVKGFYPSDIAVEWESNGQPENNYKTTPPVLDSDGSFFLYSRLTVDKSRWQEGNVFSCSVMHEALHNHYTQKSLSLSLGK", "assay": "Oregon Green peptide, pH 4.0 - salt", "procedure": "as §1, §2"}, "[21]": {"target": "T9, human plasma IgG1", "assay": "Oregon Green peptide, pH 7.5 - salt", "procedure": "as §1, §2"}, "[22]": {"target": "T10, human plasma IgG4", "assay": "Oregon Green peptide, pH 7.5 - salt", "procedure": "as §1, §2"}, "[23]": {"target": "T4, human plasma IgG2", "assay": "Oregon Green peptide, pH 9.5 - salt", "procedure": "as §1, §2"}, "[24]": {"target": "T3, human plasma IgG3", "assay": "Oregon Green peptide, pH 9.5 - salt", "procedure": "as §1, §2"}, "[25]": {"target": "T4, human plasma IgG2", "assay": "Oregon Green peptide, pH 4.0 - salt", "procedure": "as §1, §2"}, "[26]": {"target": "T4, human plasma IgG2", "assay": "Oregon Green peptide, pH 7.5 - salt", "procedure": "as §1, §2"}, "[27]": {"target": "T9, human plasma IgG1", "assay": "Oregon Green peptide, pH 4.0 + salt (500 mM NaCl)", "procedure": "as §1, §2"}, "[28]": {"target": "T4, human plasma IgG2", "assay": "Oregon Green peptide, pH 4.0 + salt (500 mM NaCl)", "procedure": "as §1, §2"}},
  "note": "Positions of bridges follow the written chain, without caps; N, C: chain ends. No end group written: not given here.",
  "data": [
    {"binder": "B1", "values": [
      {"measurement": "Kd", "setting": "[1]", "value": 23, "unit": "µM"},
      {"measurement": "Kd", "setting": "[2]", "value": 1.6, "unit": "µM"},
      {"measurement": "Kd", "setting": "[3]", "value": 0.5, "unit": "µM"},
      {"measurement": "Kd", "setting": "[4]", "value": 0.5, "unit": "µM"}
    ]},
    {"binder": "B2", "values": [
      {"measurement": "Kd", "setting": "[5]", "value": 0.32, "unit": "µM"},
      {"measurement": "Kd", "setting": "[6]", "value": 0.6, "unit": "µM"},
      {"measurement": "Kd", "setting": "[7]", "value": "> 10", "unit": "µM"},
      {"measurement": "Kd", "setting": "[8]", "value": "> 10", "unit": "µM"}
    ]},
    {"binder": "B3", "values": [
      {"measurement": "Kd", "setting": "[5]", "value": 2.5, "unit": "µM"},
      {"measurement": "Kd", "setting": "[6]", "value": 1.8, "unit": "µM"},
      {"measurement": "Kd", "setting": "[7]", "value": "> 10", "unit": "µM"},
      {"measurement": "Kd", "setting": "[9]", "value": "> 10", "unit": "µM"}
    ]},
    {"binder": "B4", "values": [
      {"measurement": "Kd", "setting": "[10]", "value": 117, "unit": "µM"},
      {"measurement": "Kd", "setting": "[11]", "value": 84, "unit": "µM"},
      {"measurement": "Kd", "setting": "[12]", "value": 82, "unit": "µM"},
      {"measurement": "Kd", "setting": "[1]", "value": 83, "unit": "µM"},
      {"measurement": "Kd", "setting": "[13]", "value": 23, "unit": "µM"},
      {"measurement": "Kd", "setting": "[14]", "value": 0.9, "unit": "µM"},
      {"measurement": "Kd", "setting": "[15]", "value": 38, "unit": "µM"},
      {"measurement": "Kd", "setting": "[2]", "value": 95, "unit": "µM"},
      {"measurement": "Kd", "setting": "[16]", "value": 21, "unit": "µM"},
      {"measurement": "Kd", "setting": "[17]", "value": 21, "unit": "µM"}
    ]},
    {"binder": "B5", "values": [
      {"measurement": "Kd", "setting": "[5]", "value": 0.84, "unit": "µM"},
      {"measurement": "Kd", "setting": "[6]", "value": 1.1, "unit": "µM"}
    ]},
    {"binder": "B6", "values": [
      {"measurement": "Kd", "setting": "[18]", "value": "> 10", "unit": "µM"},
      {"measurement": "Kd", "setting": "[19]", "value": 2.4, "unit": "µM"},
      {"measurement": "Kd", "setting": "[5]", "value": 0.02, "unit": "µM"},
      {"measurement": "Kd", "setting": "[20]", "value": 1.6, "unit": "µM"},
      {"measurement": "Kd", "setting": "[21]", "value": 4.6, "unit": "µM"},
      {"measurement": "Kd", "setting": "[22]", "value": 3.5, "unit": "µM"},
      {"measurement": "Kd", "setting": "[23]", "value": "> 10", "unit": "µM"},
      {"measurement": "Kd", "setting": "[24]", "value": "> 10", "unit": "µM"},
      {"measurement": "Kd", "setting": "[6]", "value": 0.04, "unit": "µM"},
      {"measurement": "Kd", "setting": "[7]", "value": 0.3, "unit": "µM"},
      {"measurement": "Kd", "setting": "[8]", "value": 0.3, "unit": "µM"}
    ]},
    {"binder": "B7", "values": [
      {"measurement": "Kd", "setting": "[5]", "value": 1, "unit": "µM"},
      {"measurement": "Kd", "setting": "[22]", "value": "> 10", "unit": "µM"}
    ]},
    {"binder": "B8", "values": [
      {"measurement": "Kd", "setting": "[19]", "value": 1.5, "unit": "µM"},
      {"measurement": "Kd", "setting": "[25]", "value": 1, "unit": "µM"},
      {"measurement": "Kd", "setting": "[5]", "value": 0.01, "unit": "µM"},
      {"measurement": "Kd", "setting": "[21]", "value": 8.8, "unit": "µM"},
      {"measurement": "Kd", "setting": "[26]", "value": 8.6, "unit": "µM"},
      {"measurement": "Kd", "setting": "[27]", "value": 2, "unit": "µM"},
      {"measurement": "Kd", "setting": "[28]", "value": 2, "unit": "µM"},
      {"measurement": "Kd", "setting": "[6]", "value": 0.2, "unit": "µM"}
    ]}
  ]
}
